Substitutions are numbered along the chain they refer to. Names may count otherwise.
B1: L205A: NTR point mutant (protein, UniProt P20789 1-424, looked up, variant L205A)
Neurotensin receptor type 1: MHLNSSVPQGTPGEPDAQPFSGPQSEMEATFLALSLSNGSGNTSESDTAGPNSDLDVNTDIYSKVLVTAIYLALFVVGTVGNSVTAFTLARKKSLQSLQSTVHYHLGSLALSDLLILLLAMPVELYNFIWVHHPWAFGDAGCRGYYFLRDACTYATALNVASLSVERYLAICHPFKAKTLMSRSRTKKFISAIWLASALLAIPMAFTMGLQNRSGDGTHPGGLVCTPIVDTATVKVVIQVNTFMSFLFPMLVISILNTVIANKLTVMVHQAAEQGRVCTVGTHNGLEHSTFNMTIEPGRVQALRHGVLVLRAVVIAFVVCWLPYHVRRLMFCYISDEQWTTFLFDFYHYFYMLTNALFYVSSAINPILYNLVSANFRQVFLSTLACLCPGWRHRRKKRPTFSRKPNSMSSNHAFSTSATRETLY
B2: L72A: NTR point mutant (protein, UniProt P20789 1-424, looked up, variant L72A)
Neurotensin receptor type 1: B1 Neurotensin receptor type 1 with L72A, A205L
B3: A120L: NTR point mutant (protein, UniProt P20789 1-424, looked up, variant A120L)
Neurotensin receptor type 1: B1 Neurotensin receptor type 1 with A120L, A205L
B4: P399A: NTR point mutant (protein, UniProt P20789 1-424, looked up, variant P399A)
Neurotensin receptor type 1: B1 Neurotensin receptor type 1 with A205L, P399A
B5: Y351A: NTR point mutant (protein, UniProt P20789 1-424, looked up, variant Y351A)
Neurotensin receptor type 1: B1 Neurotensin receptor type 1 with A205L, Y351A
B6: V268A: NTR point mutant (protein, UniProt P20789 1-424, looked up, variant V268A)
Neurotensin receptor type 1: B1 Neurotensin receptor type 1 with A205L, V268A
B7: T207A: NTR point mutant (protein, UniProt P20789 1-424, looked up, variant T207A)
Neurotensin receptor type 1: B1 Neurotensin receptor type 1 with A205L, T207A
B8: A155L: NTR point mutant (protein, UniProt P20789 1-424, looked up, variant A155L)
Neurotensin receptor type 1: B1 Neurotensin receptor type 1 with A155L, A205L
B9: S362A: NTR point mutant (protein, UniProt P20789 1-424, looked up, variant S362A)
Neurotensin receptor type 1: B1 Neurotensin receptor type 1 with A205L, S362A
B10: F189A: NTR point mutant (protein, UniProt P20789 1-424, looked up, variant F189A)
Neurotensin receptor type 1: B1 Neurotensin receptor type 1 with F189A, A205L
B11: Nag7n: NTR mutant F358A+H103A+I260A+F342A (protein)
chain: TSESDTAGPNSDLDVNTDIYSKVLVTAIYLALFVVGTVGNSVTAFTLARKKSLQSLQSTVAYHLGSLALSDLLILLLAMPVELYNFIWVHHPWAFGDAGCRGYYFLRDACTYATALNVASLSVERYLAICHPFKAKTLMSRSRTKKFISAIWLASALLAIPMLFTMGLQNRSGDGTHPGGLVCTPIVDTATVKVVIQVNTFMSFLFPMLVISILNTVAANKLTVMVHQAAEQGRVCTVGTHNGLEHSTFNMTIEPGRVQALRHGVLVLRAVVIAFVVCWLPYHVRRLMFCYISDEQWTTALFDFYHYFYMLTNALAYVSSAINPILYNLVSANFRQVFLSTLACLCPGWRHRRKKRPTFSRKPNSMSSNHAFSTSATRETLY
B12: N262A: NTR point mutant (protein, UniProt P20789 1-424, looked up, variant N262A)
Neurotensin receptor type 1: B1 Neurotensin receptor type 1 with A205L, N262A
B13: L109A: NTR point mutant (protein, UniProt P20789 1-424, looked up, variant L109A)
Neurotensin receptor type 1: B1 Neurotensin receptor type 1 with L109A, A205L
B14: W391A: NTR point mutant (protein, UniProt P20789 1-424, looked up, variant W391A)
Neurotensin receptor type 1: B1 Neurotensin receptor type 1 with A205L, W391A
B15: T179A: NTR point mutant (protein, UniProt P20789 1-424, looked up, variant T179A)
Neurotensin receptor type 1: B1 Neurotensin receptor type 1 with T179A, A205L
B16: S182A: NTR point mutant (protein, UniProt P20789 1-424, looked up, variant S182A)
Neurotensin receptor type 1: B1 Neurotensin receptor type 1 with S182A, A205L
B17: M293A: NTR point mutant (protein, UniProt P20789 1-424, looked up, variant M293A)
Neurotensin receptor type 1: B1 Neurotensin receptor type 1 with A205L, M293A
B18: L256A: NTR point mutant (protein, UniProt P20789 1-424, looked up, variant L256A)
Neurotensin receptor type 1: B1 Neurotensin receptor type 1 with A205L, L256A
B19: F147A: NTR point mutant (protein, UniProt P20789 1-424, looked up, variant F147A)
Neurotensin receptor type 1: B1 Neurotensin receptor type 1 with F147A, A205L
B20: D139A: NTR point mutant (protein, UniProt P20789 1-424, looked up, variant D139A)
Neurotensin receptor type 1: B1 Neurotensin receptor type 1 with D139A, A205L
B21: S100A: NTR point mutant (protein, UniProt P20789 1-424, looked up, variant S100A)
Neurotensin receptor type 1: B1 Neurotensin receptor type 1 with S100A, A205L
B22: Wildtype NTR: rat neurotensin receptor, parent (protein)
chain: B11 chain with A61H, A218I, A300F, A316F
B23: K176A: NTR point mutant (protein, UniProt P20789 1-424, looked up, variant K176A)
Neurotensin receptor type 1: B1 Neurotensin receptor type 1 with K176A, A205L
B24: L111A: NTR point mutant (protein, UniProt P20789 1-424, looked up, variant L111A)
Neurotensin receptor type 1: B1 Neurotensin receptor type 1 with L111A, A205L
B25: A90L: NTR point mutant (protein, UniProt P20789 1-424, looked up, variant A90L)
Neurotensin receptor type 1: B1 Neurotensin receptor type 1 with A90L, A205L
B26: A69L: NTR point mutant (protein, UniProt P20789 1-424, looked up, variant A69L)
Neurotensin receptor type 1: B1 Neurotensin receptor type 1 with A69L, A205L

Test: Thermostability of NTR and mutants (3H-neurotensin binding)
Assay type: physicochemical
Conditions: for thermostability, 3H-neurotensin (agonist) binding after the heating step: heated in the absence of the agonist; for thermostability, heated in the presence of 3H-neurotensin: Ligand(+) format; for Tm: neurotensin bound
Protocol: FIG. 12 Flow chart showing the two different assay formats of ligand (+) and ligand (−) used to determine receptor thermostability.
• 1. 340 site-directed mutants have been made between residues 61-400 of NTR. • 2. Initially, all of these mutants were assayed for thermostability using an assay measuring ^3H-neurotensin (agonist) binding after the heating step. […] Mutants tested for thermostability by heating in the absence of the agonist were re-tested using a slightly different assay where the mutants were heated in the presence of ^3H-neurotensin (Ligand(+) format in FIG. 12). […] All of these also have increased thermostability. • 5. Preferred combinations are • a. Nag7m F358A+A86L+I260A+F342A Tm 51° C. (neurotensin bound) • b. Nag7n F358A+H103A+I260A+F342A Tm 51° C. (neurotensin bound) • Wildtype NTR has a Tm of 35° C. with neurotensin bound.

Row | Molecule | thermostability, 3H-neurotensin (agonist) binding after the heating step | thermostability, heated in the presence of 3H-neurotensin | Tm [°C]
1 | B1 | small but significant increase in thermostability | – | –
2 | B2 | small but significant increase in thermostability | – | –
3 | B3 | small but significant increase in thermostability | – | –
4 | B4 | small but significant increase in thermostability | – | –
5 | B5 | small but significant increase in thermostability | – | –
6 | B6 | small but significant increase in thermostability | – | –
7 | B7 | small but significant increase in thermostability | – | –
8 | B8 | small but significant increase in thermostability | – | –
9 | B9 | small but significant increase in thermostability | improved thermostability | –
10 | B10 | small but significant increase in thermostability | – | –
11 | B11 | – | – | 51
12 | B12 | small but significant increase in thermostability | – | –
13 | B13 | small but significant increase in thermostability | – | –
14 | B14 | small but significant increase in thermostability | – | –
15 | B15 | small but significant increase in thermostability | – | –
16 | B16 | small but significant increase in thermostability | – | –
17 | B17 | small but significant increase in thermostability | – | –
18 | B18 | small but significant increase in thermostability | – | –
19 | B19 | small but significant increase in thermostability | – | –
20 | B20 | small but significant increase in thermostability | – | –
21 | B21 | small but significant increase in thermostability | – | –
22 | B22 | – | – | 35
23 | B23 | small but significant increase in thermostability | – | –
24 | B24 | small but significant increase in thermostability | – | –
25 | B25 | small but significant increase in thermostability | improved thermostability | –
26 | B26 | – | improved thermostability | –

— US8785135B2, “Mutant G-protein coupled receptors and methods for selecting them” (Heptares Therapeutics Limited, priority 2007, dated 2014)
